The values that follow come from patent US20230190800A1.

This assay deals with CD48 (UniProt P09326). The experiment in a line: cell-based or functional assay.
Sequence of UniProt P09326 (P09326 27-220 limits assumed): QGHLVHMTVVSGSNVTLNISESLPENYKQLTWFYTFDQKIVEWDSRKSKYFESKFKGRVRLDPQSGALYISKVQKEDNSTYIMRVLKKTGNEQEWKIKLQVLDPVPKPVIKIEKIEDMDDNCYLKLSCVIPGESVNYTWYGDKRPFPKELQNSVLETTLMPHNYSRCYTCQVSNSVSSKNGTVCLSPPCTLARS

Regarding “2B4 (CD244) (from UniProt Q9BZW8 22-370) (receptor)”, the NK cells expressing MIP-1α after incubation with S2 cells expressing B7H7 and CD48 stood at 70%; the NK cells with at least 3 different responses after incubation with S2 cells expressing B7H7 and CD48 came out at 10%.
